Experimental data taken from patent publication US11193155B2, “Designer α 6-fucosidase mutants enable direct core fucosylation of intact N-glycopeptides and N-glycoproteins” (UNIVERSITY OF MARYLAND, COLLEGE PARK, priority 2016, dated 2021).

Assays:
[1] = molecular target: T1, Aleuria aurantia lectin (AAL) (Aleuria aurantia, UniProt P18891); assay: ELISA analysis of binding between lectin AAL and glycoproteins or released N-glycans; settings: for AAL binding: glycoprotein coated on plate; for EC50: glycoprotein coated on plate (10 μg/ml), AAL-biotin serial dilution
T1 sequence (P18891 1-313): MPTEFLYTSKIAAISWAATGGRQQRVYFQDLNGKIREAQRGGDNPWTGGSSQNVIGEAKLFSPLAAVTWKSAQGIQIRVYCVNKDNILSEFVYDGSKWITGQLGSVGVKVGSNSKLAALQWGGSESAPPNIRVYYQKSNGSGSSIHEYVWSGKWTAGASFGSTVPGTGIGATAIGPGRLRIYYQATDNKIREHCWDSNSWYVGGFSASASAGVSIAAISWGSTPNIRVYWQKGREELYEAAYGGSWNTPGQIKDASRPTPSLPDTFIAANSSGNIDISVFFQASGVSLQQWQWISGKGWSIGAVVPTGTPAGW
Excerpt: FIG. 9 ELISA analysis of the binding between lectin AAL and glycoproteins or released N-glycans. The glycoproteins or released N-glycans (tagged with Fmoc) were immobilized on the plates and probed by serial dilutions of the lectin. A) AAL binding with RNase B (20) and fucosylated RNase B (21); B) AAL binding with non-fucosylated glycoform of rituximab (28) and fucosylated rituximab glycoform (30); C) AAL binding with the PNGase F released high-mannose N-glycans released from 20 and 21; D) ALL binding with the PNGase F released complex type N-glycans from 28 and 30.
The glycoprotein (20, 21, 28 or 30) (10 μg/ml) in a phosphate buffer (pH 7.5) was coated onto a 96-well plate (UltraCruz®) at 4° C. for overnight. After wash twice, 2% bovine serum albumin in PBS containing Tween® 20 (PBST buffer) was added to block the plate for 2 h. Subsequently, after washed twice again, a serial dilution of AAL-biotin ranging from 0.1 μM to 1000 μM in PBST buffer was added and the plate was incubated for 1 h. After washing, peroxidase streptavidin (2 μg/mL) (Jackson ImmunoResearch Inc.) was added and incubated for 1 h. Finally, 100 μL of substrate, 3, 3′, 5, 5′-tetramethylbenzidine was added for signal development. The reaction was stopped by the adding 100 μL of 20% sulfuric acid (v/v). The absorbance at 450 nm was measured using SpectraMax M5 microplate reader (Molecular Devices). For the binding of the N-glycans, the Fmoc-labeled N-glycans released from 20, 21, 28 and 30 (1 μg/ml) were coated on the plate and the ELISA analysis was performed in the same manner as that of the glycoproteins.

[2] = physchem; format: physicochemical; settings: buffer, pH 7.4
Excerpt: Initially, the D200 mutants were examined as potential glycosynthases using two types of activated fucosyl donors with opposite anomeric configuration as substrates. For nucleophile mutant such as D200G, a fucosyl fluoride with reversed anomeric configuration, β-fucosyl fluoride or β-fucosyl azide, should be applied to mimic the enzyme-substrate intermediate^52,53,67. However, β-glycosyl fluorides are quite unstable and are subjected to spontaneous hydrolysis in aq. solutions^42. Indeed, most successful glycosynthases have been derived so far from retaining β-glycosidases that take the α-glycosyl fluoride as donor substrate. […] Thus, the potential glycosylation activity of the nucleophilic mutants, including D200G, D200S, D200A, and D200S, were tested using both the β-glycosyl azide (1) and the β-glycosyl fluoride (2) as the donor substrates and the Fmoc-Asn(GlcNAc)-OH (4)^69 as the acceptor substrate (FIG. 3). The reactions were run with different amounts of enzymes and were monitored by reverse-phase HPLC analysis.

[3] = buffer; cited from earlier work
[4] = Transglycosylation kinetics of AlfC α-fucosidase mutants; format: biochemical; settings: apparent; donor sugar 0.2 to 2.0 mM, acceptor 2.0 mM, sodium phosphate 0.1M pH 7.5, 42° C.
Protocol: The kinetic studies on transglycosylation were carried out at 42° C. in sodium phosphate (0.1 M, pH 7.5). The transglycosylation product was detected and quantitated by HPLC analysis. The concentration of the donor substrates (1-3) was varied from 0.2 to 2.0 mM, while that of the acceptor (4) was fixed (2 mM). KM and kcat values (strictly, apparent KM and kcat, as they were determined at a fixed, nonsaturating, co-substrate concentration) were determined by fitting the initial velocity curves to the Michaelis-Menten equation by nonlinear regression in GraFit.

[5] = Glycoligase (transfucosylation) activity on acceptor 4, pH and temperature profiles; format: biochemical; settings: donor 3, acceptor 4, pH 7.5, 42° C.
Protocol: A) pH profile; B) temperature profile of its catalysis. […] The transglycosylation product was quantitated by HPLC analysis. To investigate temperature profile of AlfC α-fucosidase in transglycosylation reaction, a mixture of donor sugar 3 (20 mM), acceptor sugar (4) (10 mM) and enzyme AlfC E274G (0.2 mg/mL) was incubated in a PBS buffer (0.1 M, pH7.5) containing 5% DMSO. The reactions were carried out for 20 min at various temperatures, including 25° C., 30° C., 35° C., 40° C., 45° C., 50° C. and 55° C. The transglycosylation product was quantitated by HPLC analysis.
Next, the potential glyco-ligase activity was tested of the general acid/base residue mutants using the α-fucosyl fluoride (3) as the donor substrate (FIG. 3).

[6] = Hydrolysis of α-fucosyl fluoride in the absence of the GlcNAc acceptor; format: biochemical
[7] = test system: rituximab; assay: Defucosylation of rituximab by wild-type AlfC α-fucosidase; format: biochemical
Excerpt: The potent transfucosylation activity of AlfC α-fucoligase towards glycopeptides and glycoproteins prompted further exploring of its application for glycoengineering of therapeutic monoclonal antibodies. Core fucosylation of the Fc domain N-glycans plays a pivotal role in modulating the functions of antibodies and their therapeutic efficacy^8,74. It was previously developed by the current inventors a chemoenzymatic Fc glycan remodeling method that consists of deglycosylation and glycosynthase-catalyzed glycan transfer to produce homogeneous Fc glycoforms^65,66,75. If the fucoligase mutant could act on intact antibody, then it would further expand the repertoire of the toolbox for antibody Fc glycan engineering. To test this possibility, rituximab (26) was selected as a model system. First, rituximab was deglycosylated with Endo-S followed by defucosylation with the wild type AlfC α-fucosidase to give the GlcNAc-rituximab (27) (FIG. 7). […] The non-fucosylated complex type glycoform (28) of rituximab was synthesized by the EndoS-D233Q catalyzed glycosylation with glycan oxazoline (24) as the donor, following previously published procedure^75. These two glycoforms (27 and 28) were used as potential substrates for examining the AlfC fucoligase mutants. […] The product was readily isolated by protein A affinity chromatography. To confirm the identity of the Fucα1,6GlcNAc-rituximab (29), the product was treated with protease IdeS which specifically hydrolyzes IgG antibody to release the monomeric Fc domain, and the released Fc was analyzed by ESI-MS. […] As described previously, Fucα1,6GlcNAc-rituximab (29) was an excellent substrate for EndoS-D233Q^75. Indeed, incubation of 29 with EndoS-D233Q and glycan oxazoline (24) gave the expected core-fucosylated complex type glycoform of rituximab (30) in excellent yield, further confirming that the 29 was the expected Fucα1,6GlcNAc-rituximab.
Finally, the direct fucosylation of the intact rituximab (28) was tested carrying the full size complex type Fc N-glycans. […]

Molecule: 28: non-fucosylated complex type glycoform of rituximab [compound 28]
- AAL binding [1]: did not show any detectable affinity

Molecule: 30: core-fucosylated complex type glycoform of rituximab [compound 30]
- AAL binding [1]: specific recognition
- EC50 [1]: 15 µM
- affinity for AAL relative to core-fucosylated RNase B (21) ([1]; glycoproteins): about 17 fold

Molecule: C[C@@H]1O[C@H](F)[C@@H](F)[C@H](O)[C@@H]1O [compound 2, 2-deoxy-2-fluoro-β-fucosyl fluoride]
- half-life [2]: 6 h

Molecule: C[C@@H]1O[C@H](F)[C@@H](O)[C@H](O)[C@@H]1O [β-fucosyl fluoride]
- half-life (spontaneous hydrolysis) [3]: ca. 20 min

B1: E274G: Lactobacillus casei α1,6-fucosidase (AlfC) mutant at general acid/base residue E274 (protein)
chain: MNDNVAWFKQAKYGMMIHWGLYSLLAGEYRGESSSAYAEWIQSKFQIPNAEYGNLATAFNPLYFDAKKIVALAKQCGMQYLVVTTKHHDGFAMYHSKVDAYNVYDATPFHRDIIGELAEACQKAGLKFGLYYSQDLDWHDPNGGGYKSNDVETAGTTWDNSWDFPDEDQKNFDLCFDNKILPQIKEIMSNYGDIATAWFDVPMTLSEAQSQTIYDTVRELQPNCLINSRLGNGKYDFVSLGDNEIPKNKEDMNKTDVDYNEITGFKPSPLGLYGTAGTINDSWGFSYHDQNWKTPRTLYRYKQHLNDFGINYLLNVGLDPLGRVPMMAEENLLAAKALEDEANRL
- Km [4]: 250 ± 30 µM
- kcat [4]: 1.38 ± 0.15 × 10^2 min^−1
- catalytic activity to transfer fucose to GlcNAc of acceptor 4 [5]: excellent catalysts for fucosylation
- hydrolysis of α-fucosyl fluoride [6]: only hydrolyzed α-fucosyl fluoride slowly

B2: wild type AlfC: α1,6-fucosidase from Lactobacillus casei (AlfC), wild type (protein, listed as Lactobacillus casei)
chain: MNDNVAWFKQAKYGMMIHWGLYSLLAGEYRGESSSAYAEWIQSKFQIPNAEYGNLATAFNPLYFDAKKIVALAKQCGMQYLVVTTKHHDGFAMYHSKVDAYNVYDATPFHRDIIGELAEACQKAGLKFGLYYSQDLDWHDPNGGGYKSNDVETAGTTWDNSWDFPDEDQKNFDLCFDNKILPQIKEIMSNYGDIATAWFDVPMTLSEAQSQTIYDTVRELQPNCLINSRLGNGKYDFVSLGDNEIPKNKEDMNKTDVDYNEITGFKPSPLGLYETAGTINDSWGFSYHDQNWKTPRTLYRYKQHLNDFGINYLLNVGLDPLGRVPMMAEENLLAAKALEDEANRL
- hydrolysis of α-fucosyl fluoride [6]: could quickly hydrolyze the donor substrate
- hydrolytic (defucosylation) activity ([7]; intact rituximab, before Endo-S treatment, listed as wild type AlfC α-fucosidase): almost no activity
- hydrolytic (defucosylation) activity ([7]; intact rituximab, before Endo-S treatment, listed as wild-type AlfC α-fucosidase): unable to remove the fucose moiety
- hydrolytic (defucosylation) activity ([7]; rituximab after Endo-S deglycosylation): good hydrolytic activity

B3: E274S: Lactobacillus casei α1,6-fucosidase (AlfC) mutant at general acid/base residue E274 (protein)
chain: MNDNVAWFKQAKYGMMIHWGLYSLLAGEYRGESSSAYAEWIQSKFQIPNAEYGNLATAFNPLYFDAKKIVALAKQCGMQYLVVTTKHHDGFAMYHSKVDAYNVYDATPFHRDIIGELAEACQKAGLKFGLYYSQDLDWHDPNGGGYKSNDVETAGTTWDNSWDFPDEDQKNFDLCFDNKILPQIKEIMSNYGDIATAWFDVPMTLSEAQSQTIYDTVRELQPNCLINSRLGNGKYDFVSLGDNEIPKNKEDMNKTDVDYNEITGFKPSPLGLYSTAGTINDSWGFSYHDQNWKTPRTLYRYKQHLNDFGINYLLNVGLDPLGRVPMMAEENLLAAKALEDEANRL
- Km [4]: 260 ± 30 µM
- kcat [4]: 2.42 ± 0.14 × 10^2 min^−1
- catalytic activity to transfer fucose to GlcNAc of acceptor 4 [5]: excellent catalysts for fucosylation
- hydrolysis of α-fucosyl fluoride [6]: only hydrolyzed α-fucosyl fluoride slowly

B4: 21: core-fucosylated RNase B glycoforms carrying core fucosylated high-mannose glycans (protein, UniProt P61823 27-150, looked up)
Ribonuclease pancreatic: KETAAAKFERQHMDSSTSAASSSNYCNQMMKSRNLTKDRCKPVNTFVHESLADVQAVCSQKNVACKNGQTNCYQSYSTMSITDCRETGSSKYPNCAYKTTQANKHIIVACEGNPYVPVHFDASV
modifications: core-fucosylated high-mannose glycans
- AAL binding [1]: specific binding
- EC50 [1]: 275 µM

B5: 20: bovine ribonuclease B, natural glycoprotein with heterogeneous high-mannose type N-glycan (protein)
chain: KETAAAKFERQHMDSSTSAASSSNYCNQMMKSRNLTKDRCKPVNTFVHESLADVQAVCSQKNVACKNGQTNCYQSYSTMSITDCRETGSSKYPNCAYKTTQANKHIIVACEGNPYVPVHFDASV
- AAL binding [1]: didn't show any binding
